Test results: patent US20070154994A1

What was measured:
[1] = molecular target: Recombinant human TGF-β1 (human) (UniProt P01137); test: SPR, TGF-β1 coupled, rearrangement model, Kdapp
[2] = molecular target: Recombinant human TGF-β1 (human) (UniProt P01137); test: SPR, TGF-β1 coupled, rearrangement model, kass#1
[3] = molecular target: Recombinant human TGF-β1 (human) (UniProt P01137); test: SPR, TGF-β1 coupled, rearrangement model, Kdiss#1
[4] = molecular target: Recombinant human TGF-β1 (human) (UniProt P01137); test: SPR, TGF-β1 coupled, rearrangement model, rearrangement step
[5] = molecular target: Recombinant human TGF-β1 (human) (UniProt P01137); test: SPR, TGF-β1 coupled, rearrangement model, Kd 1 (initial binding step)

Recombinant human TGF-β1 (human), sequence (P01137 279-390 limits assumed): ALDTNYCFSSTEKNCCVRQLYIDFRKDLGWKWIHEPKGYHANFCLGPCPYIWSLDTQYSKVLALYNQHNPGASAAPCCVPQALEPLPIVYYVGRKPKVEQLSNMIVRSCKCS

Kd [1]: 302 nM
kon [2]: 75000 M⁻¹ s⁻¹
koff [3]: 0.0535 s⁻¹
kass#2 [4]: 0.0029 s⁻¹
kd 2 (no unit) [4]: 0.73 no unit
kdiss#2 [4]: 0.00217 s⁻¹
Kd [5]: 713 nM
B1: untagged CtermTβRIIIED (receptor, UniProt P26342 576-782, looked up)
chain: RQLRNPSGFQGQLDGNATFNMELYNTDLFLVPSPGVFSVAENEHVYVEVSVTKADQDLGFAIQTCFLSPYSNPDRMSDYTIIENICPKDDSVKFYSSKRVHFPIPHAEVDKKRFSFLFKSVFNTSLLFLHCELTLCSRKKGSLKLPRCVTPDDACTSLDATMIWTMMQNKKTFTKPLAVVLQVDYKENVPSTKDSSPIPPPPPQIFH
